Legend:
human serum albumin [1] = biological target: T1, human serum albumin (human, UniProt P02768 25-609); assay: reflection interference spectroscopy, HSA sensor chip, 1000 µM peptide
T1 construct: Adsorbed on an unmodified silicon nitride sensor chip (HSA sensor chip) from a 0.2 µM solution; also called HSA

human serum albumin [2] = biological target: T1, human serum albumin; assay: coefficient b of the two-exponential dissociation fit (Equation I), HSA sensor chip, 1000 µM peptide
human serum albumin [3] = biological target: T1, human serum albumin; assay: reflection interference spectroscopy, HSA sensor chip, 100 µM peptide
Procedure: (§1) The wavelength variation Δλ of the bottom wavelength of the spectral reflectivity curve of the reflected light (the layer thickness change amount Δλ) when the flow path was irradiated with white light was measured with time, whereby a sensorgram was obtained.

human serum albumin [4] = biological target: T1, human serum albumin; assay: reflection interference spectroscopy, HSA sensor chip, 2 µM peptide
Procedure: Then, a running buffer (0.1 M sodium phosphate buffer (pH 6.9)) was injected into a flow path formed between the substrate and the flow cell at a flow rate of 100 μL/min for 30 minutes or more so as to equilibrate the surface of the substrate. […] In injecting the running buffer or the sample, a liquid feeding pump for high-performance liquid chromatograph [product name: Prominence UFLC, manufactured by Shimadzu Corporation] and an autosampler [product name: Chromaster, manufactured by Hitachi, Ltd.] were used. As a result, a solid phase carrier having HSA immobilized on the surface thereon (hereinafter also referred to as “HSA sensor chip”) was obtained. In injecting the HSA solution into the flow path, the wavelength variation Δλ of bottom wavelength of the spectral reflectivity curve of the reflected light when the flow path was irradiated with white light was measured with time, whereby a sensorgram showing the time-dependent change of the wavelength variation Δλ was obtained.

human serum albumin [5] = biological target: T1, human serum albumin; assay: reflection interference spectroscopy, HSA sensor chip, 10 µM lysozyme
human serum albumin [6] = biological target: T1, human serum albumin; assay: reflection interference spectroscopy, HSA sensor chip, 10 µM peptide
Procedure: as §1

human serum albumin [7] = biological target: T1, human serum albumin; assay: coefficient b of the two-exponential dissociation fit (Equation I), HSA sensor chip, 10 µM peptide
Procedure: as §1

human serum albumin [8] = biological target: T1, human serum albumin; assay: reflection interference spectroscopy, HSA sensor chip, 1 µM peptide
human serum albumin [9] = biological target: T1, human serum albumin; assay: reflection interference spectroscopy, HSA sensor chip, 50 µM peptide

(His) 3 (peptide) was tested, and the koff (human serum albumin [1]) was 0.00257 s⁻¹, the maximum layer thickness change amount Δλ (human serum albumin [1]) was 0.027 nm and the b value (human serum albumin [2]) was 0.344.

For KKKKKKKKKK [(Lys) 10], the koff (human serum albumin [3]) was 0.0002 s⁻¹.

RRRRRRRRRR (also called (Arg)10) [arginine decapeptide]: binds (human serum albumin [4]).

B1: Lysozyme (enzyme)
chain: KVYGRCELAAAMKRLGLDNFRGYSLGNWVCAAKFESNFNTHATNRNTDGSTDYGILQINSRWWCNDGRTPGSRNLCNIPCSALLSSDTIASVNCAKKIVSDGNGMNAWVAWRKRCKGTDVNAWTRGCRL
For B1, the koff (human serum albumin [5]) was 0.0066 s⁻¹.

In the case of HHHHHHHHHH [(His) 10], the koff (human serum albumin [6]) is reported as 0.00073 s⁻¹, the “maximum layer thickness change amount Δλ” value (human serum albumin [6]) is reported as 0.086 nm and the b value (human serum albumin [7]) is reported as 0.093.

B2: ACTH partial peptide at the 1-41 positions (peptide)
peptide: GPSYSMEHFRWGKPVGKKRRPVKVYPNGAEDESAEAFPLEF
notes: Synthetic peptide from Biologica Co, Ltd; also called ACTH41
B2: binds (human serum albumin [4]).

B3: inter-α-trypsin inhibitor heavy chain 4 (peptide)
peptide: GESRNRNVHSGSTFFKYYLQGAKIPKPEASFS
notes: Named as the protein, but a 32-residue peptide was used; also called ITIH4
B3: binds (human serum albumin [4]).

In the case of GVPGLGVGAGV [ELN 11mer], the koff (human serum albumin [8]) is reported as 0.00016 s⁻¹.

B4: ACTH partial peptide at the 1-24 positions (peptide)
peptide: SYSMEHFRWGKPVGKKRRPVKVYP
notes: Synthetic peptide from Biologica Co, Ltd; also called ACTH24
B4: binds (human serum albumin [4]).

B5: Kininogen (peptide)
peptide: HNLGHGHKHERDQGHGHQR
notes: Named as the protein, but a 19-residue peptide was used
In the case of B5, the koff (human serum albumin [3]) is reported as 0.00493 s⁻¹.

For YSMEHFRWGKPVGKK [ACTH15], the koff (human serum albumin [6]) was 0.0115 s⁻¹, the “maximum layer thickness change amount Δλ” value (human serum albumin [6]) was 0.061 nm and the b value (human serum albumin [7]) was 0.029.

B6: fibrinogen α (peptide)
peptide: DEAGSEADHEGTHSTKRGHAKSRPV
notes: Named as the protein, but a 25-residue peptide was used
B6: binds (human serum albumin [4]).

HHHHHHHHHHHHHHHHHHHH (also called (His)20) [histidine eicosa peptide]: binds (human serum albumin [4]).

With AWAVARLSQRFPK [IS 13mer] the koff (human serum albumin [9]) was 0.0171 s⁻¹.
